Columns and labels:
PD2560 = assay: Cisplatin mediated cell death (cleaved caspase 3 immunoblot) with or without IL-22 pre-treatment; assay type: cell-based, murine
Description: Chemoresistance is a well-established phenomenon in PDAC and is often responsible for disease progression and death. […] Cells were then treated with varying doses of cisplatin and cell death assessed by immunoblot for cleaved caspase 3. Degree of DNA damage was determined by measurement of phosphorylated histone 2AX (pH2AX), a marker of DNA damage triggered by cisplatin (ref. 39; incorporated by reference in its entirety). […] The differences in cell death appeared to be mediated by changes in DNA damage (FIG. 6 Panel B).

IL-22 [1] = molecular target: T1, IL-22 (Homo sapiens, UniProt Q9GZX6); assay: Neutralization of human IL-22 by IL-22BP, read out as pSTAT3 activation in PDAC lines; assay type: cell-based; settings: IL-22 100 ng/ml incubated 30 minutes with IL-22BP 0-1000 ng/ml, pSTAT3 at 15 minutes in PDAC lines
T1 sequence (Q9GZX6 34-179): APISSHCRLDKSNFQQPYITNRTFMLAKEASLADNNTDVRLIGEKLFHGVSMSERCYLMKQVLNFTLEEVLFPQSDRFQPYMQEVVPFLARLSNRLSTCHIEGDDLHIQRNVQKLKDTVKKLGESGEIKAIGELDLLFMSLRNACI
Description: (§1) IL-22BP is an important regulator of IL-22 signaling at the tissue level and functions by sequestering cytokine and blocking its ability to bind to its cognate receptor. Its high affinity for IL-22 and neutralizing ability make it an attractive target for pharmacologic disruption of IL-22 signaling. To determine its efficacy in vitro, a fixed concentration of human and mouse IL-22 (100 ng/ml) was incubated for 30 minutes with increasing concentrations of human or mouse IL-22BP (0-1000 ng/ml). The mixture was then placed onto human and murine PDAC lines and IL-22 signaling measured by pSTAT3 activation at 15 minutes. […] A fusion protein which binds hIL-22BP to murine albumin was constructed.

mouse IL-22 = molecular target: T2, mouse IL-22 (Mus musculus, UniProt Q9JJY9); assay: Neutralization of mouse IL-22 by IL-22BP, read out as pSTAT3 activation in PDAC lines; assay type: cell-based; settings: IL-22 100 ng/ml incubated 30 minutes with IL-22BP 0-1000 ng/ml, pSTAT3 at 15 minutes in PDAC lines
T2 sequence (Q9JJY9 34-179): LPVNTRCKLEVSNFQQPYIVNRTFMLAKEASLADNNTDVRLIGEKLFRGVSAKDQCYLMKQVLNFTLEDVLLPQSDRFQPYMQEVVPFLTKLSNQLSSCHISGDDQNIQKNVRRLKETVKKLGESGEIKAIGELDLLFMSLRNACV
Description: as §1

IL-22 [2] = molecular target: T1, IL-22; assay: In vitro testing of fusion protein for sequestration and abrogation of STAT3 signaling; assay type: cell-based; settings: IL-22 species not stated, FIG. 6 Panel E
Description: as §1

[3] = molecular target: T3, IL-22BP-Alb fusion protein (human IL-22BP fused to murine albumin) (Homo sapiens; mouse, UniProt Q969J5 22-263); assay: binding inferred from neutralisation of IL-22-induced pSTAT3 signaling in vitro
T3 construct: also called fusion protein of hIL-22BP and albumin; not shown: serum albumin, mouse, cloned from mouse liver
T3 sequence: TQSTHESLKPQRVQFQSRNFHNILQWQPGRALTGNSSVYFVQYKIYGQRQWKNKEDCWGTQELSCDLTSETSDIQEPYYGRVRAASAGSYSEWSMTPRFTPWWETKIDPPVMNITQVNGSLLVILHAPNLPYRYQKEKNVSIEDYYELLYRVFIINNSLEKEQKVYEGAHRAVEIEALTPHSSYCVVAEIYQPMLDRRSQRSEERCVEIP
Description: as §1

[4] = molecular target: T4, human IL-22 binding protein (IL-22BP) (Homo sapiens, UniProt Q969J5 22-263); assay: binding inferred from neutralisation of IL-22-induced pSTAT3 on PDAC cells (immunoblot)
T4 construct: also called hIL-22BP; human IL-22BP
T4 sequence: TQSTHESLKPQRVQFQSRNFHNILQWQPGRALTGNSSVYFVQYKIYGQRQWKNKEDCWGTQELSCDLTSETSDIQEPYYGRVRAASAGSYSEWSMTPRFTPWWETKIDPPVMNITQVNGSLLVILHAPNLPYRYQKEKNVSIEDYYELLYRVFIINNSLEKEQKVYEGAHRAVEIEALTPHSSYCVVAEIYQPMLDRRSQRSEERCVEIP

PKCY cells = assay: Matrigel invasion assay, PDAC line; assay type: cell-based, murine; settings: IL-22 incubation compared to control conditions (untreated and IL-6)
Description: (§2) To establish the role of IL-22 in pancreatic tumorigenesis in vitro, the murine PDAC line PKCY and PanIN lines 134, 5505 and 5552 were incubated in IL-22. Matrigel invasion assays were performed and number of infiltrating cells quantified. IL-22 incubation induced a 10-fold increase in invasion of PKCY cells compared to control conditions (untreated and IL-6) (FIG. 5 Panel A). […] Wild-type and IL-22 knockout mice were subcutaneously inoculated with equal quantities of PKCY cells. At 21 days, mice were sacrificed and tumor development, size and weight were determined.

PanIN cell lines = assay: Matrigel invasion assay, PanIN lines; assay type: cell-based, murine; settings: IL-22 incubation; two PanIN cell lines with little to no invasive capability at baseline
Description: as §2

[5] = system: human and mouse PDAC cell lines; assay: Immunoblotting for STAT3 and NF-κB activation after IL-22 incubation; assay type: cell-based; settings: 100 ng/ml of IL-22 for 15 and 30 minutes
From the text: One of the principle signaling pathways activated by ligand binding at IL-22R1 is via JAK mediated phosphorylation of STAT3 (pSTAT3) (Refs. 7, 36, 37; incorporated by reference in its entirety). Because of constitutive association of STAT3 with the intracellular domain of the receptor, signaling is activated rapidly and efficiently upon IL-22 binding (ref 38; incorporated by reference in its entirety). A second, less described IL-22 signaling pathway is via NF-κB, which leads to transcription of genes associated with proliferation and prevention of apoptosis (ref. 6, 7; incorporated by reference in their entireties). To evaluate the ability of IL-22 to activate STAT3 and NF-κB in human and mouse PDAC, cell lines were incubated with 100 ng/ml of IL-22 for 15 and 30 minutes. […] To determine the presence of STAT3 activation in-vivo, IHC for pSTAT3 was performed on pancreata harvested from PKCY mice at 8 weeks (low-grade PanIN), 12 weeks (high-grade PanIN) and after ultrasound confirmation of PDAC. pSTAT3 staining was increased as lesions advanced from low grade PanIN to invasive cancer (FIG. 4B-D).

Molecule: N.N.[Cl][Pt][Cl] [cisplatin, reference compound]
- cell death by cisplatin (cleaved caspase 3) (PD2560; murine PDAC line PD2560, low and high doses): showed sensitivity

B1: IL-22BP-Alb: fusion protein which binds hIL-22BP to murine albumin (protein)
chain: TQSTHESLKPQRVQFQSRNFHNILQWQPGRALTGNSSVYFVQYKIYGQRQWKNKEDCWGTQELSCDLTSETSDIQEPYYGRVRAASAGSYSEWSMTPRFTPWWETKIDPPVMNITQVNGSLLVILHAPNLPYRYQKEKNVSIEDYYELLYRVFIINNSLEKEQKVYEGAHRAVEIEALTPHSSYCVVAEIYQPMLDRRSQRSEERCVEIP
modifications: left off: large carriers
- neutralization of human IL-22 (pSTAT3 activation) (IL-22 [1]): capable of binding and neutralizing
- neutralization of murine IL-22 (pSTAT3 activation) (mouse IL-22): capable of binding and neutralizing
- neutralization of IL-22 (sequestration and abrogation of STAT3 signaling) (IL-22 [2]): capable of neutralizing IL-22

B2: murine IL-22BP: mouse interleukin-22 binding protein (SEQ ID NO: 2) (protein, listed as Mus musculus)
chain: MMPKHCLLGLLIILLSSATALEIQPARVSLTPQKVRFQSRNFHNILHWQAGSSLPSNNSIYFVQYKMYGQSQWEDKVDCWGTTALFCDLTNETLDPYELYYGRVMTACAGRHSAWTRTPRFTPWWETKLDPPVVTITRVNASLRVLLRPPELPNRNQSGKNASMETYYGLVYRVFTINNSLEKEQKAYEGTQRAVEIEGLIPHSSYCVVAEMYQPMFDRRSPRSKERCVQIP
- neutralization of human IL-22 (pSTAT3 activation) (IL-22 [1]): little sequestration
- neutralization of murine IL-22 (pSTAT3 activation) (mouse IL-22): little sequestration

B3: human IL-22 (ligand, UniProt Q9GZX6 34-179, looked up)
chain: APISSHCRLDKSNFQQPYITNRTFMLAKEASLADNNTDVRLIGEKLFHGVSMSERCYLMKQVLNFTLEEVLFPQSDRFQPYMQEVVPFLARLSNRLSTCHIEGDDLHIQRNVQKLKDTVKKLGESGEIKAIGELDLLFMSLRNACI
notes: Used at a fixed 100 ng/ml
- binding result [3]: binds
- binding result [4]: binds

B4: IL-22: α-helical cytokine that binds the heterodimeric cell surface receptor IL-22R (protein, UniProt Q9GZX6 34-179, looked up)
Interleukin-22: APISSHCRLDKSNFQQPYITNRTFMLAKEASLADNNTDVRLIGEKLFHGVSMSERCYLMKQVLNFTLEEVLFPQSDRFQPYMQEVVPFLARLSNRLSTCHIEGDDLHIQRNVQKLKDTVKKLGESGEIKAIGELDLLFMSLRNACI
- increase in invasion of PKCY cells (PKCY cells): 10 fold
- invasion of PanIN cell lines (PanIN cell lines): induced invasion
- pSTAT3 activation [5]: robust pSTAT3 activation
- pNF-κB ([5]; KPC and PKCY lines): modest increase
- effect of IL-22 pre-treatment on sensitivity to cisplatin (PD2560; PD2560 cultured in IL-22 for 4 days before cisplatin): diminished

B5: mouse IL-22 (ligand, UniProt Q9JJY9 34-179, looked up)
chain: LPVNTRCKLEVSNFQQPYIVNRTFMLAKEASLADNNTDVRLIGEKLFRGVSAKDQCYLMKQVLNFTLEDVLLPQSDRFQPYMQEVVPFLTKLSNQLSSCHISGDDQNIQKNVRRLKETVKKLGESGEIKAIGELDLLFMSLRNACV
notes: Used at a fixed 100 ng/ml; also called murine IL-22
- binding result [3]: binds
- binding result [4]: binds

B6: Human IL-22BP: human interleukin-22 binding protein, soluble receptor capable of cytokine neutralization (SEQ ID NO: 1) (protein, listed as Homo sapiens)
chain: MMPKHCFLGFLISFFLTGVAGTQSTHESLKPQRVQFQSRNFHNILQWQPGRALTGNSSVYFVQYKIYGQRQWKNKEDCWGTQELSCDLTSETSDIQEPYYGRVRAASAGSYSEWSMTPRFTPWWETKIDPPVMNITQVNGSLLVILHAPNLPYRYQKEKNVSIEDYYELLYRVFIINNSLEKEQKVYEGAHRAVEIEALTPHSSYCVVAEIYQPMLDRRSQRSEERCVEIP
- neutralization of human IL-22 (pSTAT3 activation) (IL-22 [1]): completely neutralizing
- neutralization of human IL-22 (pSTAT3 activation) (IL-22 [1]; listed as hIL-22BP): capable of binding and neutralizing
- neutralization of murine IL-22 (pSTAT3 activation) (mouse IL-22): completely neutralizing
- neutralization of murine IL-22 (pSTAT3 activation) (mouse IL-22; listed as hIL-22BP): capable of binding and neutralizing

Source: US20200399347A1, “IL-22BP COMPOSITIONS AND METHOD FOR THE TREATMENT OF DISEASE THEREWITH” (The Regents of the University of Michigan, priority 2017, published 2020)
